Assay results published in patent US11510992.

Legend:
[1] = molecular target: cynomolgus monkey FcγR1/CD64 (cynomolgus monkey)
[2] = molecular target: cynomolgus monkey FcγR2A/CD32a (cynomolgus monkey)
[3] = molecular target: cynomolgus monkey FcγR2B/CD32b (cynomolgus monkey)
[4] = molecular target: human FcγR1/CD64 (human) (UniProt P12314)
[5] = molecular target: human FcγR2A/CD32a (R167) (human) (UniProt P12318)
[6] = molecular target: mouse FcγR1/CD64 (mouse) (UniProt P26151)
[7] = molecular target: mouse FcγR2B/CD32b (mouse) (UniProt P08101)
[8] = molecular target: rat FcγR1/CD64 (rat)
[9] = molecular target: rat FcγR2A/CD32a (rat)
[10] = molecular target: rat FcγR2B/CD32b (rat) (UniProt Q63203)
[11] = molecular target: rat FcγR3A/CD16a (rat) (UniProt Q6XPU4)
[12] = molecular target: cynomolgus monkey FcRn (cynomolgus monkey) (UniProt Q8SPV9); assay: pH 5.8
[13] = molecular target: human FcRn (human) (UniProt P55899); assay: pH 5.8
[14] = molecular target: mouse FcRn (mouse) (UniProt Q61559); assay: pH 5.8
[15] = molecular target: rat FcRn (rat) (UniProt P13599); assay: pH 5.8
[16] = molecular target: cynomolgus monkey FcRn (cynomolgus monkey) (UniProt Q8SPV9); assay: pH 7.4
[17] = molecular target: mouse FcRn (mouse) (UniProt Q61559); assay: pH 7.4
[18] = molecular target: Neuraminidase of influenza A/Hawaii/70/2019 (H1N1pdm09) (influenza A virus A/Hawaii/70/2019 (H1N1pdm09)); assay: cell-based or functional assay
[19] = molecular target: Neuraminidase of influenza A/Hong Kong/2671/2019 (H3N2) (influenza A virus A/Hong Kong/2671/2019 (H3N2)); assay: cell-based or functional assay
[20] = molecular target: Neuraminidase of influenza B/Phuket/3073/2013 (Yamagata) (influenza B virus B/Phuket/3073/2013 (Yamagata)); assay: cell-based or functional assay
[21] = molecular target: Neuraminidase of influenza B/Washington/02/2019 (Victoria) (influenza B virus B/Washington/02/2019 (Victoria)); assay: cell-based or functional assay
[22] = molecular target: neuraminidase of influenza A/CA/07/2009 (H1N1)pdm (influenza A virus A/CA/07/2009 (H1N1)pdm); assay: cell-based or functional assay
[23] = molecular target: neuraminidase of influenza A/HK/1/1968 (H3N2) (influenza A virus A/HK/1/1968 (H3N2)) (UniProt Q91MA2); assay: cell-based or functional assay
[24] = molecular target: neuraminidase of influenza B/Malaysia/2506/2004 (Victoria) (influenza B virus B/Malaysia/2506/2004 (Victoria)); assay: cell-based or functional assay

Chain of mouse FcRn (mouse) (Q61559 22-297 limits assumed, form in doubt, chain 1 of 2): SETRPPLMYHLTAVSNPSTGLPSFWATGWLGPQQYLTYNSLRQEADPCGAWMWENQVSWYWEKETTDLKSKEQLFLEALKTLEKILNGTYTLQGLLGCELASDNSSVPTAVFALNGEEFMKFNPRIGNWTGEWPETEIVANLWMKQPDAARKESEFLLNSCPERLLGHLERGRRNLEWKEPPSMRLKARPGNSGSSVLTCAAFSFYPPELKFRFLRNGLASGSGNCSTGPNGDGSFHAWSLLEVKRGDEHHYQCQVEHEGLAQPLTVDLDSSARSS
Chain of mouse FcRn (mouse) (chain, as listed by the source limits assumed, form in doubt, chain 2 of 2): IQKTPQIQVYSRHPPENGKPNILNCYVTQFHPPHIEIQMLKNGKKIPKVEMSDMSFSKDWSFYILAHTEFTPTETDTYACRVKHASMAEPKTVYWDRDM
Chain of mouse FcγR1/CD64 (mouse) (P26151 25-297 limits assumed): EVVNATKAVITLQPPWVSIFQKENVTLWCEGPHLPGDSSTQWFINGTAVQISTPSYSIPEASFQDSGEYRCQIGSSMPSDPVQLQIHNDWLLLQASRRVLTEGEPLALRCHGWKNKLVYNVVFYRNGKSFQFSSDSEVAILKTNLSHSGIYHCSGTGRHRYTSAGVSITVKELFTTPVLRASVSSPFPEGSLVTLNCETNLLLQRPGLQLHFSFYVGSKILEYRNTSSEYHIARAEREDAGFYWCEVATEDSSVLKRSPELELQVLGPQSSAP
Chain of rat FcRn (rat) (P13599 23-298 limits assumed, form in doubt, chain 1 of 2): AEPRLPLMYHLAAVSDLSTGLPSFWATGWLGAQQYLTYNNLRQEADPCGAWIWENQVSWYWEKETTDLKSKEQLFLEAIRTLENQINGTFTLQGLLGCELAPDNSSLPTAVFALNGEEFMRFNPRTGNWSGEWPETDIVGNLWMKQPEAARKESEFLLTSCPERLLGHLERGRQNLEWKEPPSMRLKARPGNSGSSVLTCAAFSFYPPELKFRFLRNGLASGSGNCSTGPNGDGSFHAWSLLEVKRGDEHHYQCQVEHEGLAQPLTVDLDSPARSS
Chain of rat FcRn (rat) (chain, as listed by the source limits assumed, form in doubt, chain 2 of 2): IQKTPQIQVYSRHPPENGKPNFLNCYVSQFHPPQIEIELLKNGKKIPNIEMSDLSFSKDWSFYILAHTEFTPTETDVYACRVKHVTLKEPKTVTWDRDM
Chain of rat FcγR2B/CD32b (rat) (Q63203 32-212): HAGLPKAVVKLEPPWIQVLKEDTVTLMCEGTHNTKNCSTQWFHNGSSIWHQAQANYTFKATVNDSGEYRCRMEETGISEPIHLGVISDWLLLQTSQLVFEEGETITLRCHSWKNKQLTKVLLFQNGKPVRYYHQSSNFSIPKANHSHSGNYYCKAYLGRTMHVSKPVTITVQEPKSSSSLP
Chain of human FcγR1/CD64 (human) (P12314 16-288 limits assumed): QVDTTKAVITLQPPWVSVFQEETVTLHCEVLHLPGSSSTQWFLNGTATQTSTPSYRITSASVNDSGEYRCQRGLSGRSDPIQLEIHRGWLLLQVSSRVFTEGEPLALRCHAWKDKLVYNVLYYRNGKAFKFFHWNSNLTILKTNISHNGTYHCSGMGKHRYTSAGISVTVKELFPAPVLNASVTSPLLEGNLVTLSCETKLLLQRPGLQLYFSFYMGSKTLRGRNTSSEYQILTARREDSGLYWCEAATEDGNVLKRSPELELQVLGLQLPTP
Chain of mouse FcγR2B/CD32b (mouse) (P08101 30-210): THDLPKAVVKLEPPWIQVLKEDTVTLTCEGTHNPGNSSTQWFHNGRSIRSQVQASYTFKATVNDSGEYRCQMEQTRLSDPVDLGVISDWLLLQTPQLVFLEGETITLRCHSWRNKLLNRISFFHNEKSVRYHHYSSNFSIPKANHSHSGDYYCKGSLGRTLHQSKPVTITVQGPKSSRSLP
Chain of human FcRn (human) (P55899 24-297 limits assumed, form in doubt, chain 1 of 2): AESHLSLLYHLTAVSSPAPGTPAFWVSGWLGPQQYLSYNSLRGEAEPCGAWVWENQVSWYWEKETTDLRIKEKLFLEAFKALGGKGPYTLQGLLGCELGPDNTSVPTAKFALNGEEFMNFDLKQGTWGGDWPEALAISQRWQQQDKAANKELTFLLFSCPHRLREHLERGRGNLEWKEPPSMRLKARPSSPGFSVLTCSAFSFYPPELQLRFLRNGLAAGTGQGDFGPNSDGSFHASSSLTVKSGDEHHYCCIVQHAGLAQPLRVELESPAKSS
Chain of human FcRn (human) (chain, as listed by the source limits assumed, form in doubt, chain 2 of 2): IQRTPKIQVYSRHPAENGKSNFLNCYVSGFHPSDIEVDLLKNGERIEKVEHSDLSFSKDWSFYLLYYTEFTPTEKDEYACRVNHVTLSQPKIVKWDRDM
Chain of rat FcγR3A/CD16a (rat) (Q6XPU4 21-203 limits assumed): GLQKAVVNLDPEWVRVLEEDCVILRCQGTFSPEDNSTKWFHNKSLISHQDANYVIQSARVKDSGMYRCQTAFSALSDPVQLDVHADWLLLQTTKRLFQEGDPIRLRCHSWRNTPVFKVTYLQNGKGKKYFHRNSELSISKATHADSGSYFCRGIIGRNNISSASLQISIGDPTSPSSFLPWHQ
Chain of human FcγR2A/CD32a (R167) (human) (P12318 36-218 H167R): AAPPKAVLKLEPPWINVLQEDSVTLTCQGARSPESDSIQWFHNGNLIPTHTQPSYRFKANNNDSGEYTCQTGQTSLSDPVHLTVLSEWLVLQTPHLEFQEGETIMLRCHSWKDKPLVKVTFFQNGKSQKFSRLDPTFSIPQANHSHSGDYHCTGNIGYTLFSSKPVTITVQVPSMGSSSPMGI

Substance human IgG1 isotype control antibody has an EC50 [1] of 0.37 nM, an EC50 [2] of 693 nM and an EC50 [3] of 1 nM. For the same substance, the EC50 [4] was 7 nM, the EC50 [5] was 144 nM and the EC50 [6] was 3 nM. For the same substance, the EC50 [7] was 153 nM, the EC50 [8] was 2 nM and the EC50 [9] was 1 nM. For the same substance, the EC50 [10] was 208 nM, the EC50 [11] was 0.008 nM and the EC50 [12] was 28 nM. The EC50 [13] was 44 nM, the EC50 [14] was 5 nM and the EC50 [15] was 13 nM. It also gave an EC50 [16] of 78 nM and an EC50 [17] of 40 nM.

In the case of hIgG1 Fc (from UniProt P01857 84-329), the IC50, enzyme-linked lectin assay (ELLA), fetuin substrate, live virus [18] is reported as > 1000 nM, the IC50, enzyme-linked lectin assay (ELLA), fetuin substrate, live virus [19] is reported as > 1000 nM and the IC50, enzyme-linked lectin assay (ELLA), fetuin substrate, live virus [20] is reported as > 1000 nM. The IC50, enzyme-linked lectin assay (ELLA), fetuin substrate, live virus [21] was > 1000 nM.

“Fc alone (SEQ ID NO: 73) (from UniProt P0DOX5 203-448)” was tested, and the ADCP (fold induction), reporter cells on MDCK cells, MOI 0 (fold induction) [22] was 0.98, the ADCP (fold induction), reporter cells on infected MDCK cells, MOI 0.1 (fold induction) [22] was 1.14 and the ADCP (fold induction), reporter cells on infected MDCK cells, MOI 0.3 (fold induction) [22] was 1.03. It also gave an ADCP (fold induction), reporter cells on infected MDCK cells, MOI 1 (fold induction) [22] of 0.99, an ADCP (fold induction), reporter cells on infected MDCK cells, MOI 3 (fold induction) [22] of 0.93 and an ADCP (fold induction), reporter cells on infected MDCK cells, MOI 10 (fold induction) [22] of 1.05. For the same substance, the ADCP (fold induction), reporter cells on MDCK cells, MOI 0 (fold induction) [23] was 1.02, the ADCP (fold induction), reporter cells on infected MDCK cells, MOI 0.1 (fold induction) [23] was 1.07 and the ADCP (fold induction), reporter cells on infected MDCK cells, MOI 0.3 (fold induction) [23] was 1.05. The ADCP (fold induction), reporter cells on infected MDCK cells, MOI 1 (fold induction) [23] was 1.18, the ADCP (fold induction), reporter cells on infected MDCK cells, MOI 3 (fold induction) [23] was 1.01 and the ADCP (fold induction), reporter cells on infected MDCK cells, MOI 10 (fold induction) [23] was 1.06. It also gave an ADCP (fold induction), reporter cells on MDCK cells, MOI 0 (fold induction) [24] of 1.07, an ADCP (fold induction), reporter cells on infected MDCK cells, MOI 0.1 (fold induction) [24] of 0.98 and an ADCP (fold induction), reporter cells on infected MDCK cells, MOI 0.3 (fold induction) [24] of 0.99. For the same substance, the ADCP (fold induction), reporter cells on infected MDCK cells, MOI 1 (fold induction) [24] was 1.14, the ADCP (fold induction), reporter cells on infected MDCK cells, MOI 3 (fold induction) [24] was 1.11 and the ADCP (fold induction), reporter cells on infected MDCK cells, MOI 10 (fold induction) [24] was 1.
